Measured values reported in the RNAGym collection of RNA variant scans (doi:10.1073/pnas.2313332121).
Variants at the floor of the assay were thinned out.

B1: TPR 5TU (parent)
chain: GGAUCUUCUCGAUCUAACAAAAAAGACAAAUCUGCCACAAAGCUUGAGAGCAUCUUCGGAUGCAGAGGCGGCAGCCUUCGGUGGCGCGAUAGCGCCAACGUUCUCAACUAUGACACGCAAAACGCGUGCUCCGUUGAAUGGAGUUUAUCAUG

Variants of: B1
Test: polymerase ribozyme fitness, log enrichment relative to wild type (log ratio); higher = more active; in vitro selection for triplet polymerase activity
Method in brief: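 Mutant libraries were PCR-built and transcribed for each subunit of a heterodimeric triplet polymerase ribozyme and selected for one round in triplicate at −7 °C, frozen, before gel excision of extended constructs and streptavidin-bead capture. Input and output libraries were Illumina-sequenced, keeping genotypes with ≥10 input reads and ≥1 read per output. Fitness is a logarithmic ratio of genotype to wild-type enrichment, in base 2, using inverse-variance-weighted replicate averages.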

Row | Variant | polymerase ribozyme fitness (log ratio)
1 | GGAUCUUCACGAUCUAACAAAAAAGACAAAUCUGCCACAAUGCUUGAGAGCAUCUUCGGAUGCAGAGGCGGCAACCUUCGGUGGCGCGGUAGCGCCAACGUUCUCAACUAUGACACGCAAAACGCGUGCUCUGUUGAAUGGAGUUUAUCAUG | ≤ -4.2
2 | GGAUCUUCACGAUCUAACAAAAAAGACAAAUCUGUCACAAAGCUUGAGAGCAUCAUCGGAUGCAGAGGCGGCAGCCUUCGGUGGCGCGAUCGCGCCAACGUUCUCAACUAUGACACGCAAAACGCGUGCUCCGUUGAAUGGAGUUUAUCAUG | ≤ -4.2
3 | GGAUCUUCACGAUCUAACAAAACAGACAAAGCUGCCACAAAGCUUGAGAGCAUCUUCGGAUGCAGAGGCGGCUGCCUUCGGUGGCGCGAUAGGGCCAACGUUCUCGACUAUGACACACAAAACGCGUGCUCCAUUGAAUGGAGUUUAUCGUG | ≤ -4.2
4 | GGAUCUUCACGAUCUAACAAAAAAGACAAAUCUGCCACUAAGCUUGAAAGCAUCUUCGGAUGCAGAGGCGGCAGCCUUCGGUGUCGCGAUAGCGCCAAAGUUCUCAACUAUGACACUCAAAACGCGUGCUCCGUUGAAUGGAGUUUAUCAUG | ≤ -4.2
5 | GGAUCUUCACGAUCUAACAAAAAAGACAAAUCUGCCACAAAGCUUGAGAGCAUCUUCGGAUGCAGAGGCGGCAGCCUUCGGUGGCGCGAUCGCGCCAACGUUCUCAACUAUGACAGGCAAAACGCGUGCUCCGUUGAAUGGAGUUUAACAUG | -3.93
6 | GGAUCUUCACGAUCUAACAAUAAAGACAAAUCUGCCACAAAGCUUGAGAGCAUCAUCGGAUGCAGAGGCGGCAGCCUUCGGUGGGGCGAUAGCGCCAACGUUCUCAACUAUCACACGCAAAACGCGUGCUCCGUUGAAUGGAGUAUAUCAUG | ≤ -4.2
7 | GGAUCUUCACGAUCUAACAAAAAUGACAAAUCUGCCCCAAACCUUGAGACCAUCUUCAGAUGCAGAGGCGGCAGCCUUCGGUGGGGCGAUCGCGCCAACGUUCUCAACUAUGACACGCAAAACGCGUGCUCCGUUGAAUGGAGUUUAACAUG | ≤ -4.2
8 | GGAUCUUCACGAUCUAACAAAACAGACAAAUUUGCCACAAAGCUUGAGAGCAUCUUCGGAUGCAGAGGCGGGAGCCUUCAAUGGCGCGAUAGCGCCAACGUUCUCAACUAUGACACGCAAAACGCGUGCUCCGUUGAAUGGAGUUUAUCAUG | ≤ -4.2
9 | GGAUCUUCACGAUCUAACAAAAAAGACAAAUCUGCCACAAGGCUUGAGAGCAUCUUCGGAUGCAGAGGCGGCAGCCUUCGGUGGCGCGAUUGCGAGAACGUGCUCAACUAUGACACGCAAAACGCGUGCUCCAUCGAAUGGAGUUUAUCAUG | ≤ -4.2
10 | GGAUCUUCACGAUCUAACCAAAAAGACAAAUCUGCCACAACGCUUGAGAGCAUCUUUGGAUGCAGAGGCGGCAGCCUUCGGUGGCGCGAUAGCGCUAACGUUCUCAACUAUGACACGCAAAACGCGUGCUCCGUUGAAUGGAGUUUAUCAUG | ≤ -4.2
11 | GGAUCUUCACGAUCUAACAAAAUAGACAAAUCUGCCACAAAGCUUGAGAGCAUCUUCGGAUGCAGAGGCGGCAGCCAUCGGUGGCGCGAUAGCGCCAACGUUCUCAACUAUGACACGCAAAACGCGUGCUCCGUUGAAUGGAGUUUAUCAUG | ≤ -4.2
12 | GGAUCUUCACGAUCUAACAAAAAAGACAAAUCUGCCACAAAGCUUGCGAGCAUCUUCGGAUGCAGAGGCGGCAGCCUUCGGUGGCGCGAUAGCGCCAACGUUCUCAACUAUGACACGCAAAACGCGUGCUCCGUUGAAUGGAGUUUAUCAUG | -4.13
13 | GGAUCUUCACGAUCUAACAAAAGAGACAAAUCUGCCACAAAGCUUGAGAGCAUCUUCGGAUGCAGAGCCGGCAGCCUUUGGUGGCGCGAUAGCCCCAACGUUCUGAACUAUGACACGCAAAACGCGUGCUCCGUUGAAUGGAAUUUAUCAUG | ≤ -4.2
14 | GGAUCUUCACGAUCUAACAAAAAAGACAAAUCUGCCACAAUGCUUGAGAGCCUCUUCGGAUUCAGAGGCGGCAGCCUUCGGUGGCGGGGUAGCGUCAACGUUCUCAACUAUGACAAGCAAAACGCGUGCUCCGUUGAAUGGCGUUAAUCCUG | ≤ -4.2
15 | GGAUCUUCACGAUCUAACAUAAAAGACUAAUCUGCCACAAAGCUUGAGAGCAUCUUCGGAUGCAGAGGCGGCAGCCUUAGGUGGCGUGAUAGCGCCAACGUUCUCAACUAUGACACGCAAAACGCGUGCUCCGUUGAAAGGAGUUUAUCAUG | ≤ -4.2
16 | GGAUCUUCACGAUCUACCACAAAAGACAAAUCUGCCACAAAGCUUGAGAGCAUUGUCAGAUGCAGAAGCGGCAGCCUUCGGUGGCGCGAUAGCGCCAACGUUCUCAACUAUGACAGGCAAAACGCGUGCUCCGUUGAAUGGAAUUUAUCAUG | ≤ -4.2
17 | GGAUCUUCACGAUCUAUCAAAAAAGACAAAUCUGCCACAAAGCUUGAGAGCAUCUUCAGAUGCAGAGGCGGCAGCCUUCGGUGGCGCGAUAGCGCCAACGUUCUCAACUAUGACACGCAAAACGCGUGCUCCGUUGAAUGGAGUUUAUCAAG | ≤ -4.2
18 | GGAUCUUCACGAUCUAACACAAUAGACAAAGCUGCCACAAAGCUUGCGAUCAUCUUCAGAUGCAGAGGCGGCAGCCUUCGGUGGUGCGAUCGCGCCAACGUUCUCAACUAUGACACGCAAAACGCGUGCUCCGUUGAAUGGAGUUUAUCAUG | ≤ -4.2
19 | GGAUCUUCACGAUCUAACAAAAAAGACAAAUAUGCCACAAAGCUUGAGAGCAUCGUCGGAUGCAGAGGCGGCAGCCUUCGGUGGCGCUAUAGCGCCAACGUUCUCAACAAUGACACGCAAAACGCGUGCUCCGUUGAAUGGAGUUUAUCAUG | ≤ -4.2
